Experimental data published in paper PMC10710730, “ProNGF promotes brain metastasis through TrkA/EphA2 induced Src activation in triple negative breast cancer cells” (Experimental Hematology & Oncology, 2023).

Biological target: T1, EphA2, endogenous in MDA-MB-231 cells (human (endogenous in MDA-MB-231), UniProt P29317 24-976)
T1 construct: EphA2 receptor, endogenous in the human breast cancer cell line MDA-MB-231; also called EphA2 receptor; source: endogenous, MDA-MB-231 cells
Test: proximity ligation; Duolink in Situ-Red kit rabbit/goat on PFA-fixed cells on collagen I coated slides; TrkA/EphA2 red dots per cell counted; cells treated with proNGF (0.5 nM, 0 to 120 min), in MDA-MB-231 TrkA also with p75NTR siRNA
Settings: partners not purified

T1 sequence (P29317 24-976): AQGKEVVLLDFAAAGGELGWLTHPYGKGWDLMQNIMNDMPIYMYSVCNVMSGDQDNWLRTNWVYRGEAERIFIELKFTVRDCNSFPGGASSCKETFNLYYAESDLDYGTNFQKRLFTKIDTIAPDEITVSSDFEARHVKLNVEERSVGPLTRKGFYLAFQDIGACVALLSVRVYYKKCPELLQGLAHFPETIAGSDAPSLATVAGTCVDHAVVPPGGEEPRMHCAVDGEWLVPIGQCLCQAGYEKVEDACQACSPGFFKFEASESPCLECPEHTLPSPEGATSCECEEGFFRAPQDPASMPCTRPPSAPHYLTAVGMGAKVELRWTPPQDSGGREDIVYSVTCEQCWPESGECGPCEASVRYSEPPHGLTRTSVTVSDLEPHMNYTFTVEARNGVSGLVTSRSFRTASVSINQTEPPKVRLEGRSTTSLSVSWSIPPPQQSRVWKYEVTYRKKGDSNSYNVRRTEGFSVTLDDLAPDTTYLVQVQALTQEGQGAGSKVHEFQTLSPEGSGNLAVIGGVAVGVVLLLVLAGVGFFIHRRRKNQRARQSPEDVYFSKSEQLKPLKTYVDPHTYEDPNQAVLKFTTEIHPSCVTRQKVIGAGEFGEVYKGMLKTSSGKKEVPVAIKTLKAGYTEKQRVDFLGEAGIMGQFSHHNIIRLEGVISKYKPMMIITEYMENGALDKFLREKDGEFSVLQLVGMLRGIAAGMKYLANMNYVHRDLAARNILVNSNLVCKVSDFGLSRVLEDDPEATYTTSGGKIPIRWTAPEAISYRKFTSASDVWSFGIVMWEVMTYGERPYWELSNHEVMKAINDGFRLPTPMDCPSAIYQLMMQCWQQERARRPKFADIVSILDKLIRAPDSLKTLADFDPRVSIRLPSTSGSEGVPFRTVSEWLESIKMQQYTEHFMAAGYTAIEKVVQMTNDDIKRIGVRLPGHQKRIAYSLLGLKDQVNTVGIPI

B1: TrkA (tyrosine kinase receptor TrkA, Tropomyosin kinase A), overexpressed in MDA-MB-231 cells (receptor)
chain: not shown
notes: TrkA, receptor of NGF and proNGF; also called MDA-MB-231-TrkA; MDA-MB-231 HA-TrkA
fold increase of TrkA/EphA2 PLA signal, proNGF 60 min over 0 min: 2 fold
